Results as given in patent US20210261685A1 (Alector, published 2021).

What was measured:
Assay in all cases: SPR, Carterra LSA, antibody immobilised
[1] = biological target: T1, human MerTK extracellular domain (ECD), recombinant (human, UniProt Q12866 21-505)
T1 construct: also called huMerTK; not shown: polyHis tag or TEVS/Thrombin/murine IgG2a Fc tag
T1 sequence: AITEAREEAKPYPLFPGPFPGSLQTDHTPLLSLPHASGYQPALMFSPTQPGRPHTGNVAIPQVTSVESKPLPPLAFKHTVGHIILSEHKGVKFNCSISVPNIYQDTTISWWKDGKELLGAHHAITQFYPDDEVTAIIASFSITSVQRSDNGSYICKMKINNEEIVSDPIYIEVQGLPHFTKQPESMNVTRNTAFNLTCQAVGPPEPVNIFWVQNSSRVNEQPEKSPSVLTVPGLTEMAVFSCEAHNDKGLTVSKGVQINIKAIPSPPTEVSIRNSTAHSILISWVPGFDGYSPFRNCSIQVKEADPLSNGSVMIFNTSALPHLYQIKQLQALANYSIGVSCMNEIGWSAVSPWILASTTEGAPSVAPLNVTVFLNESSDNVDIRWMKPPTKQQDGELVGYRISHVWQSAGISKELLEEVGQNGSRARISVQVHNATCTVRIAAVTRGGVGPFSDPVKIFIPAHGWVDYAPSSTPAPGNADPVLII
Procedure: (§1) Binding kinetics of human anti-MerTK IgG1 LALAPS antibodies of the present disclosure to human, cyno, and murine MerTK were evaluated using a Carterra LSA instrument (Carterra, Salt Lake City, Utah). Briefly, anti-MerTK antibodies were prepared by diluting to 10 μg/ml in 10 mM Acetate, pH 4.25 (Carterra), at 300 μl/well. A HC200M sensor chip (Carterra) was activated using the single channel flow cell with a 7-minute injection of a 1:1:1 mixture of 100 mM MES pH 5.5, 100 mM sulfo-NHS, 400 mM EDC (all reconstituted in MES pH 5.5; 100 μl of each mixed in vial immediately before running assay). After switching to the multi-channel array flow cell, the antibodies were injected over the activated chip in a 96-spot array for 15 minutes. The remaining unconjugated active groups on the chip were then blocked by injecting 1M Ethanolamine pH 8.5 (Carterra) for 7 minutes using the single channel flow cell.
(§2) After priming with running buffer (HBS-TE, Carterra) with 0.5 mg/ml BSA (Sigma), the immobilized anti-MerTK antibodies were tested for their ability to bind to several forms of recombinant MerTK extracellular domain, including human, cynomolgus, and mouse orthologs as described above. Estimates of affinity were generated by injecting each analyte over the entire antibody array using the single channel flow cell. MerTK analytes were diluted to 33.3, 100, and 300 nM in running buffer, and injected in serial from lowest to highest concentration without regeneration. Two buffer blanks were run between each series (one species per series). Data were processed and analyzed using NextGenKIT high-throughput kinetics analysis software (Carterra).
(§3) The equilibrium dissociation constants (KD) were then calculated from the fitted association and dissociation rate constants (k-on and k-off) for anti-MerTK antibodies of the present disclosure. Binding kinetic analysis was also performed on anti-MerTK antibodies H1 (BioLegend, Clone ID: 590H11G1E3), H2 (R&D systems, Clone ID: 125518), M6 (WO2016/106221), and CDX AB2000-A7 hIgG1 (WO2019/084307).

[2] = biological target: T2, cyno MerTK extracellular domain (ECD), recombinant (cynomolgus monkey, UniProt Q12866 21-505 (human entry))
T2 construct: also called cynomolgus MerTK; not shown: polyHis tag or TEVS/Thrombin/murine IgG2a Fc tag
T2 chain: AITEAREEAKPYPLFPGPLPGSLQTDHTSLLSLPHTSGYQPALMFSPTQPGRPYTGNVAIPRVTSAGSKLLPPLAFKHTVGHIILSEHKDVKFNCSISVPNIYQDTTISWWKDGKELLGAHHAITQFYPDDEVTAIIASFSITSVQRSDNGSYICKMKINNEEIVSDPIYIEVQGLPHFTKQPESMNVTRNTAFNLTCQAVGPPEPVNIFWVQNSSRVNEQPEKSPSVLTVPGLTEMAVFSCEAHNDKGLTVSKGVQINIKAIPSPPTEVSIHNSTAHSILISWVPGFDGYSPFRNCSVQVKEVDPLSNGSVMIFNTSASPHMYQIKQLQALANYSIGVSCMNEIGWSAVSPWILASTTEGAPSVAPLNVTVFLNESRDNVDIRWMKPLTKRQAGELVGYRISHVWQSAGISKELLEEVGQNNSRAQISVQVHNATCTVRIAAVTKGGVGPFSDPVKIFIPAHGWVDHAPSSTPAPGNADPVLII
Procedure: as §1, §2, §3

[3] = biological target: T3, murine MerTK extracellular domain (ECD), recombinant (mouse, UniProt Q60805 19-497)
T3 construct: also called moMerTK; mouse MerTK; not shown: polyHis tag or TEVS/Thrombin/murine IgG2a Fc tag
T3 sequence: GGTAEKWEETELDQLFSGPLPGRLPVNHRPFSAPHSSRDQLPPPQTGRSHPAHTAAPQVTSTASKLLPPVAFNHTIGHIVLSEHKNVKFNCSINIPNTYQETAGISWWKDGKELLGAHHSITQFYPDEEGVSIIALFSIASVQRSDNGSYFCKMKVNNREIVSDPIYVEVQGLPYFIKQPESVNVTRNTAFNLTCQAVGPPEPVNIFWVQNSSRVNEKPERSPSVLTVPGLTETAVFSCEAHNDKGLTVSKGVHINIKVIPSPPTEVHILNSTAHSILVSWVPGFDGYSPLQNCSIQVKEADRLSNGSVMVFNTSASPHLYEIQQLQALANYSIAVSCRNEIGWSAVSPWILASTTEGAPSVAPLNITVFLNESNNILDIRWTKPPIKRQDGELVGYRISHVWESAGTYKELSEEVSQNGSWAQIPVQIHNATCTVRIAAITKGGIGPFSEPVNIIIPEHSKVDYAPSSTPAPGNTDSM
Procedure: as §1, §2, §3

| Binder | Kd [1] | binding result [2] | binding result [3] | Kd [2] | Kd [3] |
| --- | --- | --- | --- | --- | --- |
| MTK-13 (antibody, human IgG1, V domains shown) VH: DVQLQESGPGLVKPSQSLSLTCSVTGYSITSGYYWNWIRQFPGNKLEWMGNIDYDGSNKYNPSLKNRISITRDTSKNHFFLKLNSVTPEDTATYFCARDGGNYRSFAYWGQGTLVTVSA VL: QIVLTQSPPIMSASPGEKVTITCSASSSVSYMYWFQQKPGTSPKLWIYSTFNLASGVPARFSGSGSGTSYSLTISRMEAEDVATYYCQQRSSYPFTFGSGTKLEIK | 37 nM |  | no binding (tested: 300 nM) | 39 nM |  |
| MTK-24 (antibody, human IgG1, V domains shown) VH: QVQLQQPGAELVKPGASVKLSCKASGYTFTSYWMHWVKQRPGQGLEWIGMIHPNINTNYNEKFKSKATLTVDISSSTAYMQLSSLTSEDSAVYYCAKRSPYSNYDWYFDVWGTGTTVTVSS VL: DIQMTQSPASLSVSVGETVTITCRASENIYSNLAWYQQKQGKSPQLLVYAATNLADGVPSRFSGSGSGTQYSLKINSLQSEDFGSYYCQHFWGTPLTFGAGTKLELK | 41 nM |  |  | 44 nM | 55 nM |
| MTK-26 (antibody, human IgG1, V domains shown) VH: AVQFQESGPGLVKLSQSLSLTCSVTGYSITSGYYWDWIRQFPGNKLEWMGYISYDGSNNYNPSLKNRISITRDTSKNQFFLKLNSVTTEDTATYYCAREGGYYRSMDYWGQGTSVTVSS VL: QIVLTQSPAIMSASPGEKVTIACSASSSVSFMHWFQQKPGTSPRLWIYSTSNLASGVPARFSGSGSGTSYSLTISRMEAEDAATYYCQQRSSYPFTFGSGTKLEIK | 30 nM |  | no binding (tested: 300 nM) | 30 nM |  |
| MTK-27 (antibody, human IgG1, V domains shown) VH: EVQLQQSGTELVRPGASVKLSCTASGFNIKDDYMHWVQQRPEQGLEWIGWIDPENGNTEYASKFQGKATITADASSNTAYLQLSSLTSEDTAVYYCSTLFSNYFDYWGQGTTLTVSS VL: DIVMTQSQKFMSTSVGDRVSITCKASQNVRTSVAWYQQKPGQSPKALIYLASNRHTGVPDRFTGSGSGTDFTLTISNVRSEDLADYFCLQHWNYPYTFGGGTKLEIK | 71 nM |  | no binding (tested: 300 nM) | 71 nM |  |
| MTK-30 (antibody, human IgG1, V domains shown) VH: QVQLQQPGTELVRPGASVKLSCKASGYTFTSYWMHWVKQRPGQGLEWIGNLNPNNGGTYYNEKFKSKATLTVDKSSSTAYMQLSSLTSEDSAVYYCARQILLYFDYWGQGTTLTVSS VL: DVLMTQTPLSLPVSLGDQASISCRSSQSIVHSNGDTYLEWYLQKPGQSPKLLIYKVSNRFSGVPDRFSGSGSGTDFTLKISRVEAEDLGVYYCFQGSHVPWTFGGGTKLEIK | 23 nM |  |  | 24 nM | 30 nM |

Now those with a lower Kd [1], led by results:

| Kd [1] | binding result [2] | binding result [3] | Kd [2] | Kd [3] | Binder |
| --- | --- | --- | --- | --- | --- |
| 18 nM |  | no binding (tested: 300 nM) | 17 nM |  | MTK-06 (antibody, human IgG1, V domains shown) VH: QIQLVQSGPELKKPGETVKISCKASGYTFTNYGMNWVKQAPGKGLKWMGWINTNTGEPTYAEEFKGRFAFSLETSASTAYLQINNLKNEDTATYFCARYYNYWYFDVWGAGTTVTVSS VL: QIVLSQSPAILSASPGEKVTMTCRASSSVSYMHWYQQKPGSSPKPWIYATSNLASGVPARFSGSGSGTSYSLTISRVEAEDAATYYCQQWSSKPPTFGGGTKLEIK |
| 5.3 nM | no binding (tested: 300 nM) | no binding (tested: 300 nM) |  |  | MTK-12 (antibody, human IgG1, V domains shown) VH: QVQLQQSGPQLVRPGASVKISCKASGYSFTSHWMHWVKQRPGQGLEWIGMIDPSDGESRLNQKFKDKATLTVDKSSSTAYMQLSSPTFEDSAVYYCARGIYYYGITYAMDYWGQGTSVTVSS VL: QIVLTQSPAIMSASPGEKVTMTCSASSSVSYMYWYQQKPRSSPRLLIYDTSNLASGVPVRFSGSGSGTSYSLTISRMEAEDAATYYCQQWSSYPLTFGAGTKLELK |
| 4.1 nM |  | no binding (tested: 300 nM) | 4.5 nM |  | MTK-28 (antibody, human IgG1, V domains shown) VH: QIQLVQSGPELKKPGETVKISCKASGYTFTTYGMSWVKQAPGKGLKWMGWINTYSGVPTYADDFKGRFAFSLETSASTAYLQINTLKNEDTTTYFCARFLRYYYFDYWGQGTTLTVSS VL: QIVLSQSPVILSASPGEKVTMTCRASSSVTYMHWYQQQPGSSPKPWIYATSNLASGVPARFSGSGSGTSYSLTISRVETEDAATYYCHQWSGNPTFGGGTKLEIN |
| 2.7 nM |  | no binding (tested: 300 nM) | 3 nM |  | MTK-15 (antibody, human IgG1, V domains shown) VH: QIQLVQSGPELKKPGETVKISCKASGYTFTNYGVHWVKQAPGKGLKWMGWINTYTGEPTYADDFKGRFAFSLETSASTAYLQINNLKNEDMATYFCARGNRYAYMDYWGQGTSVTVSS VL: QIVLSQSPAILSASPGEKVTMTCRASSSVSYMHWYQQKSGSSPKPWIYATSNLASGVPARFSGSGSGTSYSLTISRVEAEDAATYYCQQWSSNPRTFGGGTKLEIK |
| 2 nM |  | no binding (tested: 300 nM) | 1.9 nM |  | MTK-10 (antibody, human IgG1, V domains shown) VH: QVTLKESGPGILQPSQTLSLTCSFSGFSLTTSGMGVGWIRQPSGKGLEWLAHIWSDDDKRSNPALKSRLTISQDSSTNQVFLKIASVDTADSATYYCSHLTPVREFAYWGPGTLVTVSE VL: DIQMTQTTSSLSASLGDRVTISCSASQGISNYLNWFQQKPDGTVKLLIYYTSRLHSGVPSRFSGSGSGTDFSLTISNLEPEDIATYYCQQYTKLPYTFGGGTKLEIK |
| 1.4 nM |  | no binding (tested: 300 nM) | 1.6 nM |  | MTK-16 (antibody, human IgG1, V domains shown) VH: LIQLVQSGPELKKPGETVKISCKASGYTFTNHGMNWVKQDPGKGLKWMGWINTYTGEPTYADDFKGRFVFSMETSASAAFLQINNLKNEDTATYFCARKGVTAARYFDYWGQGTTLTVSS VL: DIVMTQSPKFMSTSVGDRVSITCKASQNVRTAVAWYKKKPGQSPKALINLASNRHTGVPDRFTGSGSGTDFTLTISNVQSEDLADYFCLQHWNYPLTFGGGTKLEIK |
